Reference: patent US20100260765A1 (AstraZeneca / MedImmune, published 2010)

Experiments:
[1] = biological target: T1, mouse KDR (Flk-1)/Fc (Cat. #443-KD/CF, R&D Systems) (mouse, UniProt P35918 20-762); assay: ELISA, plate-coated Flk-1/Fc 500 ng/mL, hybridoma supernatant 1:5
T1 construct: Bought reagent; also called mouse VEGFR2; KDR mouse ortholog; Fc part of the bought chimera not given
Experimental: The cross-reactivity of antibodies in the hybridoma supernatant was tested against KDR mouse ortholog (mouse VEGFR2, or Flk-1) and human VEGFR1 (Flt-1). Cross-reactivity was measured using an ELISA based assay.
After washing and blocking the plates, the antibody-containing supernatants were added (at 1:5 dilution) into the coated wells and incubated for one hour at room temperature. The plates were then incubated with mouse anti-human IgG 2, 3 and 4 and subsequently with goat anti-mouse IgG Fc POD, to detect and measure bound antibodies.

[2] = biological target: T2, human KDR (VEGFR2) on cells (human, UniProt P35968 20-1356); assay: FACS on HUVEC, hybridoma supernatant 1:50
T2 construct: whole, on cells; also called native KDR on HUVEC; endogenously expressed KDR
Experimental: HUVECs were seeded at 15,000 cells/well and incubated with 100 μL of sample supernatant (at 1:50 dilution) for one hour at 4° C. The positive control was goat anti-KDR antibody (R&D Systems, Inc.), and negative controls included irrelevant hybridoma supernatants at the same dilution. The cells were then washed and incubated with Cy5-conjugated goat anti-human antibody at 5 μg/mL and 7-Amino-Actinomycin D (7AAD) at 5 μg/mL for 15 minutes at 4° C. Bound KDR was detected using FACS analysis.

[3] = biological target: T2, human KDR (VEGFR2) on cells; assay: cell-based or functional assay
[4] = biological target: T3, soluble KDR (VEGF Receptor 2 D1-7, Cat. #676490, Calbiochem) (human, UniProt P35968 20-764); assay: ELISA, plate-coated soluble KDR 250 ng/mL, hybridoma supernatant 1:5
T3 construct: extracellular domain; Bought reagent; also called soluble human KDR; immobilized soluble KDR
Experimental: To screen by binding to immobilized soluble KDR, plates were coated with KDR (Calbiochem) at 250 ng/mL overnight at 4° C. After blocking and washing the coated plates, the candidate hybridoma supernatants (at 1:5 dilution) were transferred to the plates and incubated for one hour at room temperature. The plates were then washed and incubated with secondary antibody (at 1:4000 dilution) for one hour at room temperature.

[5] = biological target: T2, human KDR (VEGFR2) on cells; assay: cell-based or functional assay; remark: listed apart in the source
[6] = biological target: T2, human KDR (VEGFR2) on cells; assay: cell-based or functional assay; remark: listed apart in the source

T3 sequence (P35968 20-764): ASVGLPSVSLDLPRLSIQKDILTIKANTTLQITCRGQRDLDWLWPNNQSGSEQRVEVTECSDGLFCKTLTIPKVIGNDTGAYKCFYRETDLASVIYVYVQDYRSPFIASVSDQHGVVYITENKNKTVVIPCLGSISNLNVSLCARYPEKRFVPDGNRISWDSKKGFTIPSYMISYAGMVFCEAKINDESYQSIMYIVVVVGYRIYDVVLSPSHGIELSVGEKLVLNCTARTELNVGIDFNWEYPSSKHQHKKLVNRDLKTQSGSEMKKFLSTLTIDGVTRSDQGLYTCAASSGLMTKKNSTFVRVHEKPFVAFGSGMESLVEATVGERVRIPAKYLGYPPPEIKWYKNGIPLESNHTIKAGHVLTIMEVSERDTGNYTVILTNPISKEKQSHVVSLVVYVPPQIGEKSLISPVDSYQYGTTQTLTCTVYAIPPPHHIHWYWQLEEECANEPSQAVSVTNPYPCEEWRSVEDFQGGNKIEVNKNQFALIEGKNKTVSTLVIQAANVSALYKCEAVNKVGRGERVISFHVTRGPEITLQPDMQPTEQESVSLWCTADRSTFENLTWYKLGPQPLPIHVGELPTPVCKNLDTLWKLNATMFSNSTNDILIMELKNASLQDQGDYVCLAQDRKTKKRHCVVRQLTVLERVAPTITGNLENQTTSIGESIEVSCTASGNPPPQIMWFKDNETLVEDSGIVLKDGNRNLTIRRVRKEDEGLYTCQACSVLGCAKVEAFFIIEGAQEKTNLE
T1 sequence (P35918 20-762): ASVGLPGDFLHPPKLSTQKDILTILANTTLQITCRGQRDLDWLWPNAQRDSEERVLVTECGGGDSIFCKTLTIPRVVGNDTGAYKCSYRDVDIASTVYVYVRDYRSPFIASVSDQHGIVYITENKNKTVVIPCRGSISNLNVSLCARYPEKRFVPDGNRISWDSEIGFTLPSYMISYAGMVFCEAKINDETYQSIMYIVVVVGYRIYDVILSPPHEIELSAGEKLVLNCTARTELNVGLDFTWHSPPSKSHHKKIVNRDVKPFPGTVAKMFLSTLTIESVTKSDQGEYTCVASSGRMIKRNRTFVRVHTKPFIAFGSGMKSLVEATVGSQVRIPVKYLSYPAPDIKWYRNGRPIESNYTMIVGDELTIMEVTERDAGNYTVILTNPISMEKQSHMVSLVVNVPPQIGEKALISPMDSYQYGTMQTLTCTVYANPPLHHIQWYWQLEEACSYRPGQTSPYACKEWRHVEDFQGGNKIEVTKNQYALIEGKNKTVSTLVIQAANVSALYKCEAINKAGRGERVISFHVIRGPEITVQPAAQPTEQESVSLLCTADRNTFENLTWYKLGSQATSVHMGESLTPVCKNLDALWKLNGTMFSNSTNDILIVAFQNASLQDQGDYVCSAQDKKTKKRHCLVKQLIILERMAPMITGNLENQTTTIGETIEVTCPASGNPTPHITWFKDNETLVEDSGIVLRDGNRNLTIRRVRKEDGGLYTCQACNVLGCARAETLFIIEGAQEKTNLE
T2 sequence (P35968 20-1356): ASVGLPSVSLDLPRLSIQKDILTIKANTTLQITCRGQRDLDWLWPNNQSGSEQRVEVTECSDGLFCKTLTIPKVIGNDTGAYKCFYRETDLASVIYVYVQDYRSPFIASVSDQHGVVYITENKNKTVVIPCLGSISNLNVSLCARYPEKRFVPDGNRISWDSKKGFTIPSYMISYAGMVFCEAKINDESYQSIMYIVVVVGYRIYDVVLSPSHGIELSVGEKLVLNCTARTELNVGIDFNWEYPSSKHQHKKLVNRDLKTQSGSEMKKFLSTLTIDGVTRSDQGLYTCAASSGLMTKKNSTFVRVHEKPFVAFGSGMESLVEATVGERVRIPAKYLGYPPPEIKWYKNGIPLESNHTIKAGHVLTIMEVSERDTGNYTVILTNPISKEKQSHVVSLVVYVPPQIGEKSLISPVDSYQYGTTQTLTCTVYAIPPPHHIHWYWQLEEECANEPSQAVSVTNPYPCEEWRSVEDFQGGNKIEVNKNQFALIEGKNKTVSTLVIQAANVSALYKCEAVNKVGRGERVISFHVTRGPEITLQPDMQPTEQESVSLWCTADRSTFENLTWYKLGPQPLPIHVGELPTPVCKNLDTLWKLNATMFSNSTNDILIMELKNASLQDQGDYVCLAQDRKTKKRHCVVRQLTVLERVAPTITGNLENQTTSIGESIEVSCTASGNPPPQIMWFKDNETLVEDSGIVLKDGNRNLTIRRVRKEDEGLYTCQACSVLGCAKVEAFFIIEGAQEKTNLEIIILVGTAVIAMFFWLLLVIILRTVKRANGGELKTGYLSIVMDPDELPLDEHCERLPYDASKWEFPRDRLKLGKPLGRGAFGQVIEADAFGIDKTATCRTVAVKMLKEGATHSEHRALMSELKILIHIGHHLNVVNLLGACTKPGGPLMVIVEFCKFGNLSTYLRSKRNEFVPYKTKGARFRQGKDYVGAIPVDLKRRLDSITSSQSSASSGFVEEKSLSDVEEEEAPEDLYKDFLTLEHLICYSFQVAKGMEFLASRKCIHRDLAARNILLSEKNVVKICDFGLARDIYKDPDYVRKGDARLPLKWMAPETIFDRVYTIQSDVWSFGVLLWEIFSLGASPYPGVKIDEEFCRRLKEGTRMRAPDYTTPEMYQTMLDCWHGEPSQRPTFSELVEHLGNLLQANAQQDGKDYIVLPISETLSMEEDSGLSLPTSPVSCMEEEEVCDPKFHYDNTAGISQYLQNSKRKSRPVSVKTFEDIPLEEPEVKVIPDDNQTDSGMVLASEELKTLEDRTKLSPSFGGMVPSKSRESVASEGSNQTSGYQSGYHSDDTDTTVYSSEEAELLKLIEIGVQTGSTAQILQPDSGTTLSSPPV

Binder	OD (450 nm) [1]	FACS Geometric Mean [2]	% Inhibition of VEGF165-mediated pTyr Activity, Average [3]	% Inhibition of VEGF165-mediated pTyr Activity, n = 1 [3]	% Inhibition of VEGF165-mediated pTyr Activity, n = 2 [3]	% Inhibition of VEGF165-mediated pTyr Activity, n = 3 [3]	KDR OD(450 nm) [4]	HUVEC survival (n = 1) 1:10 dilution of supernatant (RLU) [5]	HUVEC survival (n = 2) 1:20 dilution of supernatant (RLU) [5]	% Inhibition of VEGF-E-mediated pTyr Activity [6]
anti-KDR monoclonal antibody 1G6 (antibody, V domains shown, Fully human mAb from XenoMouse (IgG2 or IgG4 strain); tested here as hybridoma supernatant) VH: EVQLLESGGGLVQPGGSLRLSCAASGFTFSSYAMSWVRQAPGKGLEWVSAISGGGGNTYYADSVKGRFTISRDNSKNTLYLQMNSLRAEDTAVYYCSKVATDYWGQGTLVTVSS VL: QPVLTQSSSASASLGSSVKLTCTLSSGHSSYIIAWHQQQPGKAPRYLMKLEGSGSYNKGSGVPDRFSGSSSGADRYLTISNLQFEDEADYYCETWDSYTVVFGGGTKLTVL	0.055 OD450	32	71%	89%	67%	58%	6 OD450	47800 RLU	10200 RLU	24%
anti-KDR monoclonal antibody 29A11 (antibody, V domains shown, Fully human mAb from XenoMouse (IgG2 or IgG4 strain); hybridoma supernatant) VH: EVQLLESGGGLVQPGGSLRLSCAASGFTFSNYAMNWVRQAPGKGLEWVSAISGGGGNTYYADSVKGRFTISRDNSKNTLYLQMNRLRAEDTAVYYCAKASGDDWGQGTLVTVSS VL: not shown		31	78%	96%	72%	66%	3.53 OD450	34600 RLU	27700 RLU	15%
anti-KDR monoclonal antibody 32C11 (antibody, V domains shown, Fully human mAb from XenoMouse (IgG2 or IgG4 strain); hybridoma supernatant) VH: EVQLLESGGTLVQPGGSLRLSCAASGFTFSNYAMSWVRQAPGKGLEWVSAISGRAGSTYYADSVKGRFTISRDNSKNTLFLQMNSLRAEDTAVYYCAKASGDDWGQGTLVTVSS VL: not shown	0.083 OD450	26	72%	84%	75%	57%	0.924 OD450	44800 RLU	8570 RLU	17%
anti-KDR monoclonal antibody 30E3 (antibody, V domains shown, Fully human mAb from XenoMouse (IgG2 or IgG4 strain); hybridoma supernatant; also called 30E3.1; 30E3.2) VH: EVQLLESGGGLVQPGGSLRLSCAASGFTFSNYALSWVRQAPGKGLEWVSAISGSGRNTYYADSVKGRFTLSRDNSKNTLFLQMNSLRAEDTAVYYCAKASGDNWGQGTLVTVSS VL: not shown		36	71%	89%	67%	58%	4.18 OD450	37500 RLU	30400 RLU	19%
anti-KDR monoclonal antibody 21H9 (antibody, V domains shown, Fully human mAb from XenoMouse (IgG2 or IgG4 strain); hybridoma supernatant) VH: QVPLVESGGGVVQPGRSLRLSCAASGFTFSSYGMHWVRQAPGKGLEWVAVIWYDGSNKYYADSVQGRFTISRDNSKNTLYLQMNSLRAEDTAVYYCARGVTMVRGLIIARYYYGLDVWGQGTTVTVSS VL: DIVMTQTPLSSPVTFGQPASISCRSSQSLVHSDGNTYLSWLQQRPGQPPRLLIYKISNRFFGVPDRFSGSGAGTDFTLKISRVEAEDVGLYYCMQSTQFPLTFGGGTKVEIK	0.139 OD450	29	70%	80%	70%	61%	1.65 OD450	43800 RLU	10300 RLU	6%
anti-KDR monoclonal antibody 29F7 (antibody, V domains shown, Fully human mAb from XenoMouse (IgG2 or IgG4 strain); hybridoma supernatant) VH: QVQLVQSGAEVKKPGASVKVSCKASGYTFTSYDINWVRQATGQGLEWMGWMNPNSGKTGYAQKFQGRVTMTRSTSISTAYMELSSLRSEDTAVYYCARGGYSNLGWFDPWGQGTLVTVSS VL: DIQMTQSPSSVFASVGDRVTITCRASQGISTWLAWYQQKPGKAPKFLIYAASSLQSGVPSRFSGSGSGTDFTLTISSLQPDDFATYYCQQANNFPFTFGPGTKVDIK	0.093 OD450	32	78%	90%	67%	77%	1.22 OD450	44100 RLU	24000 RLU	45%
anti-KDR monoclonal antibody 24C9 (antibody, V domains shown, Fully human mAb from XenoMouse (IgG2 or IgG4 strain); hybridoma supernatant) VH: EVQLVESGGGLVKPGGSLRLSCAASGFTFSTYSMNWVRQAPGKGLEWVSFISGRSSYIYYADSVKGRFTISRDNAKNSLYLQMNSLRAEDTAVYYCSKDDWFEELWGQGTLVTVSS VL: DIQMTQSPSSLSASVGDRVTITCRASQGIRNDLGWYQQKPGKAPKRLIYATFSLQSGVPSRFSGSGSGTEFTLTISSLQPEDFATYYCLQHNRYPWTFGQGTKVEIK	0.098 OD450	33	46%	55%	45%	38%	0.55 OD450	14600 RLU	9180 RLU	51%
anti-KDR monoclonal antibody 30F6 (antibody, V domains shown, Fully human mAb from XenoMouse (IgG2 or IgG4 strain); hybridoma supernatant) VH: QVQLVESGGGVVQPGRSLRLSCAASGFTFSTYGMHWVRQAPGKGLEWVAVIWYDGSNKYYADSVKGRFTISRDNSKNTLYLQMNSLRAEDTAVYYCACSYWNDDYYYGMDVWGQGTTVTVSS VL: DIQMTQSPSSLSASVGDRVIITCRASQNISSYLIWYQQKPGKAPNLLIHTTSSLQRGVPSRFSGSGSGTDFTLTISSLQPEDFATYYCQQSYSAPLTFGGGTKVEIK	0.067 OD450	21	70%	98%	60%	52%	0.454 OD450	14800 RLU	1350 RLU	56%
